Test results published in paper PMC8563704, “Gain-of-Function Properties of a Dynamin 2 Mutant Implicated in Charcot-Marie-Tooth Disease” (Frontiers in Cellular Neuroscience, 2021).

B1: DNM2^WT-EGFP (enzyme, rat, UniProt P39052-1 1-870, looked up)
chain: MGNRGMEELIPLVNKLQDAFSSIGQSCHLDLPQIAVVGGQSAGKSSVLENFVGRDFLPRGSGIVTRRPLILQLIFSKTEYAEFLHCKSKKFTDFDEVRQEIEAETDRVTGTNKGISPVPINLRVYSPHVLNLTLIDLPGITKVPVGDQPPDIEYQIKDMILQFISRESSLILAVTPANMDLANSDALKLAKEVDPQGLRTIGVITKLDLMDEGTDARDVLENKLLPLRRGYIGVVNRSQKDIEGRKDIRAALAAERKFFLSHPAYRHMADRMGTPHLQKTLNQQLTNHIRESLPTLRSKLQSQLLSLEKEVEEYKNFRPDDPTRKTKALLQMVQQFGVDFEKRIEGSGDQVDTLELSGGARINRIFHERFPFELVKMEFDEKDLRREISYAIKNIHGVRTGLFTPDLAFEAIVKKQVVKLKEPCLKCVDLVIQELISTVRQCTSKLSSYPRLREETERIVTTYIREREGRTKDQILLLIDIEQSYINTNHEDFIGFANAQQRSTQLNKKRAIPNQGEILVIRRGWLTINNISLMKGGSKEYWFVLTAESLSWYKDEEEKEKKYMLPLDNLKIRDVEKGFMSNKHVFAIFNTEQRNVYKDLRQIELACDSQEDVDSWKASFLRAGVYPEKDQAENEDGAQENTFSMDPQLERQVETIRNLVDSYVAIINKSIRDLMPKTIMHLMINNTKAFIHHELLAYLYSSADQSSLMEESAEQAQRRDDMLRMYHALKEALNIIGDISTSTVSTPVPPPVDDTWLQNTSSHSPTPQRRPVSSVHPPGRPPAVRGPTPGPPLIPMPVGATSSFSAPPIPSRPGPQNVFANNDPFSAPPQIPSRPARIPPGIPPGVPSRRAPAAPSRPTIIRPAEPSLLD
notes: dynamin 2, rat, isoform 1 (ba, IIBA), UniProtKB P39052-1; The template cDNAs carried C-terminal His6 tags; also called EGFP-tagged DNM2^WT; source: expressed in U2OS cells (brightness analysis); NIH-3T3 cells (FLIM-FRET); not shown: EGFP, C-terminal, kept
B2: DNM2^A618T-EGFP (enzyme, rat, UniProt P39052-1 1-870, looked up)
chain: MGNRGMEELIPLVNKLQDAFSSIGQSCHLDLPQIAVVGGQSAGKSSVLENFVGRDFLPRGSGIVTRRPLILQLIFSKTEYAEFLHCKSKKFTDFDEVRQEIEAETDRVTGTNKGISPVPINLRVYSPHVLNLTLIDLPGITKVPVGDQPPDIEYQIKDMILQFISRESSLILAVTPANMDLANSDALKLAKEVDPQGLRTIGVITKLDLMDEGTDARDVLENKLLPLRRGYIGVVNRSQKDIEGRKDIRAALAAERKFFLSHPAYRHMADRMGTPHLQKTLNQQLTNHIRESLPTLRSKLQSQLLSLEKEVEEYKNFRPDDPTRKTKALLQMVQQFGVDFEKRIEGSGDQVDTLELSGGARINRIFHERFPFELVKMEFDEKDLRREISYAIKNIHGVRTGLFTPDLAFEAIVKKQVVKLKEPCLKCVDLVIQELISTVRQCTSKLSSYPRLREETERIVTTYIREREGRTKDQILLLIDIEQSYINTNHEDFIGFANAQQRSTQLNKKRAIPNQGEILVIRRGWLTINNISLMKGGSKEYWFVLTAESLSWYKDEEEKEKKYMLPLDNLKIRDVEKGFMSNKHVFAIFNTEQRNVYKDLRQIELACDSQEDVDSWKTSFLRAGVYPEKDQAENEDGAQENTFSMDPQLERQVETIRNLVDSYVAIINKSIRDLMPKTIMHLMINNTKAFIHHELLAYLYSSADQSSLMEESAEQAQRRDDMLRMYHALKEALNIIGDISTSTVSTPVPPPVDDTWLQNTSSHSPTPQRRPVSSVHPPGRPPAVRGPTPGPPLIPMPVGATSSFSAPPIPSRPGPQNVFANNDPFSAPPQIPSRPARIPPGIPPGVPSRRAPAAPSRPTIIRPAEPSLLD
notes: dynamin 2, rat, isoform 1 (ba, IIBA), UniProtKB P39052-1, with the CNM-linked mutation A618T; The template cDNAs carried C-terminal His6 tags; also called EGFP-tagged DNM2^A618T; source: expressed in U2OS cells; not shown: EGFP, C-terminal, kept
B3: DNM2^K562E-EGFP (enzyme, rat, UniProt P39052-1 1-870, looked up)
chain: MGNRGMEELIPLVNKLQDAFSSIGQSCHLDLPQIAVVGGQSAGKSSVLENFVGRDFLPRGSGIVTRRPLILQLIFSKTEYAEFLHCKSKKFTDFDEVRQEIEAETDRVTGTNKGISPVPINLRVYSPHVLNLTLIDLPGITKVPVGDQPPDIEYQIKDMILQFISRESSLILAVTPANMDLANSDALKLAKEVDPQGLRTIGVITKLDLMDEGTDARDVLENKLLPLRRGYIGVVNRSQKDIEGRKDIRAALAAERKFFLSHPAYRHMADRMGTPHLQKTLNQQLTNHIRESLPTLRSKLQSQLLSLEKEVEEYKNFRPDDPTRKTKALLQMVQQFGVDFEKRIEGSGDQVDTLELSGGARINRIFHERFPFELVKMEFDEKDLRREISYAIKNIHGVRTGLFTPDLAFEAIVKKQVVKLKEPCLKCVDLVIQELISTVRQCTSKLSSYPRLREETERIVTTYIREREGRTKDQILLLIDIEQSYINTNHEDFIGFANAQQRSTQLNKKRAIPNQGEILVIRRGWLTINNISLMKGGSKEYWFVLTAESLSWYKDEEEKEKEYMLPLDNLKIRDVEKGFMSNKHVFAIFNTEQRNVYKDLRQIELACDSQEDVDSWKASFLRAGVYPEKDQAENEDGAQENTFSMDPQLERQVETIRNLVDSYVAIINKSIRDLMPKTIMHLMINNTKAFIHHELLAYLYSSADQSSLMEESAEQAQRRDDMLRMYHALKEALNIIGDISTSTVSTPVPPPVDDTWLQNTSSHSPTPQRRPVSSVHPPGRPPAVRGPTPGPPLIPMPVGATSSFSAPPIPSRPGPQNVFANNDPFSAPPQIPSRPARIPPGIPPGVPSRRAPAAPSRPTIIRPAEPSLLD
notes: dynamin 2, rat, isoform 1 (ba, IIBA), UniProtKB P39052-1, with the CMT-linked mutation K562E; The template cDNAs carried C-terminal His6 tags; also called EGFP-tagged DNM2^K562E; source: expressed in U2OS cells; not shown: EGFP, C-terminal, kept
B4: DNM2^ΔDEE-EGFP (enzyme, rat, UniProt P39052-1 1-870, looked up)
chain: MGNRGMEELIPLVNKLQDAFSSIGQSCHLDLPQIAVVGGQSAGKSSVLENFVGRDFLPRGSGIVTRRPLILQLIFSKTEYAEFLHCKSKKFTDFDEVRQEIEAETDRVTGTNKGISPVPINLRVYSPHVLNLTLIDLPGITKVPVGDQPPDIEYQIKDMILQFISRESSLILAVTPANMDLANSDALKLAKEVDPQGLRTIGVITKLDLMDEGTDARDVLENKLLPLRRGYIGVVNRSQKDIEGRKDIRAALAAERKFFLSHPAYRHMADRMGTPHLQKTLNQQLTNHIRESLPTLRSKLQSQLLSLEKEVEEYKNFRPDDPTRKTKALLQMVQQFGVDFEKRIEGSGDQVDTLELSGGARINRIFHERFPFELVKMEFDEKDLRREISYAIKNIHGVRTGLFTPDLAFEAIVKKQVVKLKEPCLKCVDLVIQELISTVRQCTSKLSSYPRLREETERIVTTYIREREGRTKDQILLLIDIEQSYINTNHEDFIGFANAQQRSTQLNKKRAIPNQGEILVIRRGWLTINNISLMKGGSKEYWFVLTAESLSWYKEKEKKYMLPLDNLKIRDVEKGFMSNKHVFAIFNTEQRNVYKDLRQIELACDSQEDVDSWKASFLRAGVYPEKDQAENEDGAQENTFSMDPQLERQVETIRNLVDSYVAIINKSIRDLMPKTIMHLMINNTKAFIHHELLAYLYSSADQSSLMEESAEQAQRRDDMLRMYHALKEALNIIGDISTSTVSTPVPPPVDDTWLQNTSSHSPTPQRRPVSSVHPPGRPPAVRGPTPGPPLIPMPVGATSSFSAPPIPSRPGPQNVFANNDPFSAPPQIPSRPARIPPGIPPGVPSRRAPAAPSRPTIIRPAEPSLLD
notes: dynamin 2, rat, isoform 1 (ba, IIBA), UniProtKB P39052-1, with the CMT-linked deletion of residues 555DEE557; Deletion introduced into the EGFP-tagged DNM2^WT template; also called EGFP-tagged DNM2^Δ ^DEE; source: expressed in U2OS cells (brightness analysis); NIH-3T3 cells (FLIM-FRET); not shown: EGFP, C-terminal, kept

Biological target: the molecule itself
Assay: fluorescence fluctuation spectroscopy (brightness analysis); EGFP-tagged dynamins in the cytosol of living U2OS cells, as a function of concentration; two-photon excitation at 1,000 nm; brightness normalised to monomeric EGFP

First: B1
Second: B2
The “stoichiometry N” value of the first is lower: roughly 4 for the first, 20 to 24 for the second.

B3 and B4 are the same in “stoichiometry N” value: roughly 4 for the first, roughly 4 for the second.
